Where a chain is given by its changes, count along the chain named. Names may count otherwise. Where two headings read alike, the source gives them in different places. Each block holds one binder with its values, some of them ahead of it.
Tests used:
[1] = target: T1, Human HM1.24 on RPMI 8226 multiple myeloma cells (UniProt Q10589 1-161); experiment: flow cytometry
T1 chain: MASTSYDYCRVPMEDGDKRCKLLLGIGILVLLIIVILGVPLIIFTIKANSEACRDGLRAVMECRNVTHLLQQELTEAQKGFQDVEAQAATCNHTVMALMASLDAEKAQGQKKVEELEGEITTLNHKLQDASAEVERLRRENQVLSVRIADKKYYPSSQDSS

[2] = target: T2, His-tagged HM1.24 antigen, residues N49-A163 of the extracellular domain (UniProt Q10589 49-163); experiment: Biacore
T2 chain: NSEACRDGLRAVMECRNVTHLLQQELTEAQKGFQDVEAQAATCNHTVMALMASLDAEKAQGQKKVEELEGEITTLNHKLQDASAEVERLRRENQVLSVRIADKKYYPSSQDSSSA

[3] = target: T2, His-tagged HM1.24 antigen, residues …; experiment: Biacore
[4] = target: T2, His-tagged HM1.24 antigen, residues …; experiment: Biacore
[5] = target: T2, His-tagged HM1.24 antigen, residues …; experiment: Biacore

EC50 [1]: 2220 pM | Kd [2]: 63.7 pM | Kd [3]: 52.2 pM
B1: H0L0_IgG1_S239D/I332E (antibody, V domains shown)
VH: QVQLQQSGAELARPGASVKLSCKASGYTFTPYWMQWVKQRPGQGLEWIGSIFPGDGDTRYSQKFKGKATLTADKSSSTAYMQLSILAFEDSAVYYCARGLRRGGYYFDYWGQGTTLTVSS
VL: DIVMTQSHKFMSTSVGDRVSITCKASQDVNTAVAWYQQKPGQSPKLLIYSASNRYTGVPDRITGSGSGTDFTFTISSVQAEDLALYYCQQHYSTPFTFGSGTKLEIK

EC50 [1]: 2460 pM | Kd [2]: 53.7 pM | Kd [3]: 51.1 pM
B2: HM1.24_H0L0_IgG1_WT (antibody, V domains shown)
VH: B1 VH
VL: DIVMTQSHKFMSTSVGDRVSITCKASQDVNTAVAWYQQKPGQSPKLLIYSASNRYTGVPDRITGSGSGTDFTFTISSVQAEDLALYYCQQHYSTPFTFGSGTKLEIKR

koff [4]: 0.00203 s⁻¹ | koff [5]: 0.0023 s⁻¹ | Kd [2]: 71.1 pM | Kd [3]: 62 pM
B3: HM1.24_H1.2 heavy chain variant with HM1.24_L4 light chain (antibody, V domains shown)
VH: QVQLVQSGAEVKKPGASVKVSCKASGYTFTPYWMQWVRQAPGQGLEWMGSIFPGSGDTRYSQSFQGQVTISADKSISTAYMELSRLRSDDTAVYYCARGLRRGGYYFDYWGQGTLVTVSS
VL: DIVMTQSPLSLPVTLGQPASISCKASQDVNTAVAWYLQKPGKSPKLLIYSASNRYTGVPDRITGSGSGTDFTLKISRVEAEDVGVYYCQQHYSTPFTFGSGTKLEIKR

koff [4]: 0.00266 s⁻¹ | koff [5]: 0.00218 s⁻¹
B5: HM1.24_H2.1 heavy chain variant with HM1.24_L4 light chain (antibody, V domains shown)
VH: EVQLVESGGGLVKPGGSLRLSCAASGYTFTPYWMQWVRQAPGKGLEWMGSIFPGEGDTRYSQSFQGQVTISADKSISTAYMELSSLRSEDTAVYYCARGLRRGGYYFDYWGQGTLVTVSS
VL: B3 VL

koff [4]: 0.00298 s⁻¹ | koff [5]: 0.00298 s⁻¹
B6: HM1.24_H1.4 heavy chain variant with HM1.24_L4 light chain (antibody, V domains shown)
VH: B3 VH with S55D, G56A
VL: B3 VL

EC50 [1]: 2520 pM | koff [4]: 0.00318 s⁻¹ | koff [5]: 0.00241 s⁻¹ | Kd [2]: 57.4 pM | Kd [3]: 26.9 pM
B9: HM1.24_H1L2 (antibody, V domains shown)
VH: B3 VH with S55D
VL: DIVMTQSPSSLSASVGDRVTITCQASQDVNTAVAWYQQKPDQSPKLLIYSASNRYTGVPDRITGSGSGTDFTLTISSLQAEDVAVYYCQQHYSTPFTFGSGTKLEIKR

koff [4]: 0.004 s⁻¹ | koff [5]: 0.0029 s⁻¹
B12: HM1.24_H2.4 heavy chain variant with HM1.24_L4 light chain (antibody, V domains shown)
VH: B5 VH with E55D, G56A
VL: B3 VL

EC50 [1]: 1890 pM | koff [4]: 0.00352 s⁻¹ | koff [5]: 0.00243 s⁻¹ | Kd [2]: 57.2 pM | Kd [3]: 38.1 pM
B13: HM1.24_H1L4 (antibody, V domains shown)
VH: B3 VH with S55D
VL: B3 VL

koff [4]: 0.00251 s⁻¹ | koff [5]: 0.00201 s⁻¹
B16: HM1.24_H1.1 heavy chain variant with HM1.24_L4 light chain (antibody, V domains shown)
VH: B3 VH with S55E
VL: B3 VL

koff [4]: 0.00374 s⁻¹ | koff [5]: 0.00327 s⁻¹
B17: HM1.24_H2.3 heavy chain variant with HM1.24_L4 light chain (antibody, V domains shown)
VH: B5 VH with E55D, G56S
VL: B3 VL

EC50 [1]: 13100 pM
B19: H2L3_Hybrid_S239D/I332E (antibody, V domains shown)
VH: B5 VH with E55D
VL: B9 VL with S9P, S10T, A13L, V15P, D17E, I21L, T22S, Q24R, A80P, V83F

Second part, the binder before the results:

B4: HM1.24_H1.1_L2_Hybrid_S239D/I332E (antibody, V domains shown)
VH: B3 VH with S55E
VL: B9 VL
koff [4]: 0.0032 s⁻¹ | koff [5]: 0.00206 s⁻¹

B7: HM1.24_H1.2_L2_Hybrid_S239D/I332E (antibody, V domains shown)
VH: B3 VH
VL: B9 VL
koff [4]: 0.00371 s⁻¹ | koff [5]: 0.0039 s⁻¹

B8: HM1.24_H2L4 (antibody, V domains shown)
VH: B5 VH with E55D
VL: B3 VL
EC50 [1]: 3550 pM | koff [4]: 0.00418 s⁻¹ | koff [5]: 0.00299 s⁻¹

B10: HM1.24_H1.3 heavy chain variant with HM1.24_L4 light chain (antibody, V domains shown)
VH: B3 VH with S55D, G56S
VL: B3 VL
koff [4]: 0.00261 s⁻¹ | koff [5]: 0.00229 s⁻¹

B11: H1L3_Hybrid_S239D/I332E (antibody, V domains shown)
VH: B3 VH with S55D
VL: B9 VL with S9P, S10T, A13L, V15P, D17E, I21L, T22S, Q24R, A80P, V83F
EC50 [1]: 3260 pM

B14: HM1.24_H1.4_L2_Hybrid_S239D/I332E (antibody, V domains shown)
VH: B3 VH with S55D, G56A
VL: B9 VL
koff [4]: 0.00352 s⁻¹ | koff [5]: 0.00274 s⁻¹

B15: HM1.24_H1.3_L2_Hybrid_S239D/I332E (antibody, V domains shown)
VH: B3 VH with S55D, G56S
VL: B9 VL
koff [4]: 0.003 s⁻¹ | koff [5]: 0.00279 s⁻¹

B18: HM1.24_H2L2 (antibody, V domains shown)
VH: B5 VH with E55D
VL: B9 VL
EC50 [1]: 5830 pM
